Experimental data taken from patent US20190360025A1.
pKd: −log10 of the molar value. One block for each substance: values may come before it.

Legend:
[1] = target: glial cell line derived neurotrophic factor (GDNF), R&D Systems 212-GD-010 (UniProt P39905); assay: c-PLA, buffer; GDNF 1.00E-08 M
[2] = target: glial cell line derived neurotrophic factor (GDNF), R&D Systems 212-GD-010 (UniProt P39905); assay: c-PLA, buffer; GDNF 1.00E-09 M
[3] = target: glial cell line derived neurotrophic factor (GDNF), R&D Systems 212-GD-010 (UniProt P39905); assay: c-PLA, buffer; GDNF 1.00E-10 M
[4] = target: glial cell line derived neurotrophic factor (GDNF), R&D Systems 212-GD-010 (UniProt P39905); assay: c-PLA, buffer; GDNF 1.00E-11 M
[5] = target: glial cell line derived neurotrophic factor (GDNF), R&D Systems 212-GD-010 (UniProt P39905); assay: c-PLA, buffer; GDNF 1.00E-12 M
[6] = target: glial cell line derived neurotrophic factor (GDNF), R&D Systems 212-GD-010 (UniProt P39905); assay: c-PLA, buffer; GDNF 1.00E-13 M
[7] = target: glial cell line derived neurotrophic factor (GDNF), R&D Systems 212-GD-010 (UniProt P39905); assay: c-PLA, buffer; GDNF 1.00E-14 M
[8] = target: glial cell line derived neurotrophic factor (GDNF), R&D Systems 212-GD-010 (UniProt P39905); assay: t-PLA, buffer; GDNF 1.00E-08 M
[9] = target: glial cell line derived neurotrophic factor (GDNF), R&D Systems 212-GD-010 (UniProt P39905); assay: t-PLA, buffer; GDNF 1.00E-09 M
[10] = target: glial cell line derived neurotrophic factor (GDNF), R&D Systems 212-GD-010 (UniProt P39905); assay: t-PLA, buffer; GDNF 1.00E-10 M
[11] = target: glial cell line derived neurotrophic factor (GDNF), R&D Systems 212-GD-010 (UniProt P39905); assay: t-PLA, buffer; GDNF 1.00E-11 M
[12] = target: glial cell line derived neurotrophic factor (GDNF), R&D Systems 212-GD-010 (UniProt P39905); assay: t-PLA, buffer; GDNF 1.00E-12 M
[13] = target: glial cell line derived neurotrophic factor (GDNF), R&D Systems 212-GD-010 (UniProt P39905); assay: t-PLA, buffer; GDNF 1.00E-13 M
[14] = target: glial cell line derived neurotrophic factor (GDNF), R&D Systems 212-GD-010 (UniProt P39905); assay: t-PLA, buffer; GDNF 1.00E-14 M
[15] = target: glial cell line derived neurotrophic factor (GDNF), R&D Systems 212-GD-010 (UniProt P39905); assay: SPR (Biacore T200), 1:1 global fit
[16] = target: glial cell line derived neurotrophic factor (GDNF), R&D Systems 212-GD-010 (UniProt P39905); assay: SPR, isoaffinity graph
[17] = target: glial cell line derived neurotrophic factor (GDNF), R&D Systems 212-GD-010 (UniProt P39905); assay: SPR (Biacore T200), biotinylated antibody on CAP chip, 1:1 fit
[18] = target: glial cell line derived neurotrophic factor (GDNF), R&D Systems 212-GD-010 (UniProt P39905); assay: BLI (Octet RED), antibody on protein G sensors, 1:1 global fit
[19] = target: glial cell line derived neurotrophic factor (GDNF), R&D Systems 212-GD-010 (UniProt P39905); assay: SPR, off-rate given by the software, beyond the sensitivity range of the instrument
[20] = target: glial cell line derived neurotrophic factor (GDNF), R&D Systems 212-GD-010 (UniProt P39905); assay: SPR, value from the software's off-rate, beyond the sensitivity range of the instrument
[21] = target: insulin-like growth factor II (IGF-II), R&D Systems 292-G2-050 (UniProt P01344); assay: c-PLA, buffer; IGF-II 1.00E-06 M
[22] = target: insulin-like growth factor II (IGF-II), R&D Systems 292-G2-050 (UniProt P01344); assay: c-PLA, buffer; IGF-II 1.00E-07 M
[23] = target: insulin-like growth factor II (IGF-II), R&D Systems 292-G2-050 (UniProt P01344); assay: c-PLA, buffer; IGF-II 1.00E-08 M
[24] = target: insulin-like growth factor II (IGF-II), R&D Systems 292-G2-050 (UniProt P01344); assay: c-PLA, buffer; IGF-II 1.00E-09 M
[25] = target: insulin-like growth factor II (IGF-II), R&D Systems 292-G2-050 (UniProt P01344); assay: c-PLA, buffer; IGF-II 1.00E-10 M
[26] = target: insulin-like growth factor II (IGF-II), R&D Systems 292-G2-050 (UniProt P01344); assay: c-PLA, buffer; IGF-II 1.00E-11 M
[27] = target: insulin-like growth factor II (IGF-II), R&D Systems 292-G2-050 (UniProt P01344); assay: t-PLA, buffer; IGF-II 1.00E-06 M
[28] = target: insulin-like growth factor II (IGF-II), R&D Systems 292-G2-050 (UniProt P01344); assay: t-PLA, buffer; IGF-II 1.00E-07 M
[29] = target: insulin-like growth factor II (IGF-II), R&D Systems 292-G2-050 (UniProt P01344); assay: t-PLA, buffer; IGF-II 1.00E-08 M
[30] = target: insulin-like growth factor II (IGF-II), R&D Systems 292-G2-050 (UniProt P01344); assay: t-PLA, buffer; IGF-II 1.00E-09 M
[31] = target: insulin-like growth factor II (IGF-II), R&D Systems 292-G2-050 (UniProt P01344); assay: t-PLA, buffer; IGF-II 1.00E-10 M
[32] = target: insulin-like growth factor II (IGF-II), R&D Systems 292-G2-050 (UniProt P01344); assay: t-PLA, buffer; IGF-II 1.00E-11 M
[33] = target: insulin-like growth factor II (IGF-II), R&D Systems 292-G2-050 (UniProt P01344); assay: SPR (Biacore T200), 1:1 global fit
[34] = target: insulin-like growth factor II (IGF-II), R&D Systems 292-G2-050 (UniProt P01344); assay: SPR, isoaffinity graph
[35] = target: insulin-like growth factor II (IGF-II), R&D Systems 292-G2-050 (UniProt P01344); assay: SPR (Biacore T200), biotinylated antibody on CAP chip, 1:1 fit
[36] = target: insulin-like growth factor II (IGF-II), R&D Systems 292-G2-050 (UniProt P01344); assay: BLI (Octet RED), antibody on protein G sensors, 1:1 global fit
[37] = target: macrophage migration inhibitory factor (MIF), R&D Systems 289-MF-002 (UniProt P14174); assay: c-PLA, buffer; MIF 1.00E-07 M
[38] = target: macrophage migration inhibitory factor (MIF), R&D Systems 289-MF-002 (UniProt P14174); assay: c-PLA, buffer; MIF 1.00E-08 M
[39] = target: macrophage migration inhibitory factor (MIF), R&D Systems 289-MF-002 (UniProt P14174); assay: c-PLA, buffer; MIF 1.00E-09 M
[40] = target: macrophage migration inhibitory factor (MIF), R&D Systems 289-MF-002 (UniProt P14174); assay: c-PLA, buffer; MIF 1.00E-10 M
[41] = target: macrophage migration inhibitory factor (MIF), R&D Systems 289-MF-002 (UniProt P14174); assay: c-PLA, buffer; MIF 1.00E-11 M
[42] = target: macrophage migration inhibitory factor (MIF), R&D Systems 289-MF-002 (UniProt P14174); assay: c-PLA, buffer; MIF 3.00E-07 M
[43] = target: macrophage migration inhibitory factor (MIF), R&D Systems 289-MF-002 (UniProt P14174); assay: t-PLA, buffer; MIF 1.00E-07 M
[44] = target: macrophage migration inhibitory factor (MIF), R&D Systems 289-MF-002 (UniProt P14174); assay: t-PLA, buffer; MIF 1.00E-08 M
[45] = target: macrophage migration inhibitory factor (MIF), R&D Systems 289-MF-002 (UniProt P14174); assay: t-PLA, buffer; MIF 1.00E-09 M
[46] = target: macrophage migration inhibitory factor (MIF), R&D Systems 289-MF-002 (UniProt P14174); assay: t-PLA, buffer; MIF 1.00E-10 M
[47] = target: macrophage migration inhibitory factor (MIF), R&D Systems 289-MF-002 (UniProt P14174); assay: t-PLA, buffer; MIF 1.00E-11 M
[48] = target: macrophage migration inhibitory factor (MIF), R&D Systems 289-MF-002 (UniProt P14174); assay: t-PLA, buffer; MIF 3.00E-07 M
[49] = target: macrophage migration inhibitory factor (MIF), R&D Systems 289-MF-002 (UniProt P14174); assay: SPR (Biacore T200), 1:1 global fit
[50] = target: macrophage migration inhibitory factor (MIF), R&D Systems 289-MF-002 (UniProt P14174); assay: SPR, isoaffinity graph
[51] = target: macrophage migration inhibitory factor (MIF), R&D Systems 289-MF-002 (UniProt P14174); assay: SPR (Biacore T200), biotinylated antibody on CAP chip, 1:1 fit
[52] = target: macrophage migration inhibitory factor (MIF), R&D Systems 289-MF-002 (UniProt P14174); assay: BLI (Octet RED), antibody on protein G sensors, 1:1 global fit

Chain of UniProt P14174 (P14174 whole entry): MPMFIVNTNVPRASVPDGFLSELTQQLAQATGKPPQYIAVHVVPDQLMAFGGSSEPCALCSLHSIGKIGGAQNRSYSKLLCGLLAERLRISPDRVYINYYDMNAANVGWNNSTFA
Chain of UniProt P01344 (P01344 25-91 limits assumed): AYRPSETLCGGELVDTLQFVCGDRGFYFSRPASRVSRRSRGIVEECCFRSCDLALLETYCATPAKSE
Chain of UniProt P39905 (P39905 78-211 limits assumed): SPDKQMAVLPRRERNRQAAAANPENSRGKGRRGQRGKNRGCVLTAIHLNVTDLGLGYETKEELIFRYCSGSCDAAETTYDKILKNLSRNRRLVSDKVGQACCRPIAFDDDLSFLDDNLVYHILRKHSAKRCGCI

Counts [1]: 214000
SBR [1]: 14200
Counts [2]: 427000
SBR [2]: 28300
Counts [3]: 59400
SBR [3]: 3930
Counts [4]: 3340
SBR [4]: 221
Counts [5]: 283
SBR [5]: 19
Counts [6]: 172
SBR [6]: 11
Counts [7]: 17
SBR [7]: 1.1
Counts [8]: 1.02e+09
SBR [8]: 1520
Counts [9]: 2.24e+09
SBR [9]: 3320
Counts [10]: 6.04e+08
SBR [10]: 896
Counts [11]: 6.06e+07
SBR [11]: 90
Counts [12]: 6.17e+06
SBR [12]: 9.1
Counts [13]: 7.19e+06
SBR [13]: 11
Counts [14]: 1.92e+06
SBR [14]: 2.8
pKd [15]: > 12.15
koff [15]: < 1e-05 s⁻¹
kon [15]: 1.35e+07 M⁻¹ s⁻¹
pKd [16]: > 11.30
pKd [17]: > 12.15
koff [17]: < 1e-05 s⁻¹
kon [17]: 1.4e+07 M⁻¹ s⁻¹
pKd [18]: > 11.60
koff [18]: < 1e-06 s⁻¹
kon [18]: 393000 M⁻¹ s⁻¹
koff [19]: 2.34e-06 s⁻¹
pKd [20]: 12.76
Substance: affinity-purified polyclonal anti-GDNF antibody (R&D Systems AF-212-NA)

Counts [21]: 49700
SBR [21]: 227
Counts [22]: 50300
SBR [22]: 230
Counts [23]: 12200
SBR [23]: 56
Counts [24]: 527
SBR [24]: 2.4
Counts [25]: 215
SBR [25]: 1
Counts [26]: 171
SBR [26]: 0.8
Counts [27]: 4.77e+07
SBR [27]: 65
Counts [28]: 5.89e+07
SBR [28]: 81
Counts [29]: 1.75e+07
SBR [29]: 24
Counts [30]: 641000
SBR [30]: 0.9
Counts [31]: 145000
SBR [31]: 0.2
Counts [32]: 400000
SBR [32]: 0.5
pKd [33]: 10.29
koff [33]: 2.49e-05 s⁻¹
kon [33]: 486000 M⁻¹ s⁻¹
pKd [34]: < 10.30
pKd [35]: 10.29
koff [35]: 2.5e-05 s⁻¹
kon [35]: 490000 M⁻¹ s⁻¹
pKd [36]: 8.93
koff [36]: 0.000321 s⁻¹
kon [36]: 274000 M⁻¹ s⁻¹
Substance: affinity-purified polyclonal anti-IGF-II antibody (R&D Systems AF-292-NA)

Counts [37]: 39600
SBR [37]: 2330
Counts [38]: 29800
SBR [38]: 1750
Counts [39]: 12300
SBR [39]: 724
Counts [40]: 1020
SBR [40]: 60
Counts [41]: 96.6
SBR [41]: 5.7
Counts [42]: 36900
SBR [42]: 2170
Counts [43]: 5.2e+07
SBR [43]: 27
Counts [44]: 3.97e+07
SBR [44]: 21
Counts [45]: 1.43e+07
SBR [45]: 7
Counts [46]: 1.84e+06
SBR [46]: 1
Counts [47]: 681000
SBR [47]: 0.4
Counts [48]: 4.66e+07
SBR [48]: 24
pKd [49]: 10.08
koff [49]: 9.41e-05 s⁻¹
kon [49]: 1.14e+06 M⁻¹ s⁻¹
pKd [50]: < 10.30
pKd [51]: 10.08
koff [51]: 9.4e-05 s⁻¹
kon [51]: 1.1e+06 M⁻¹ s⁻¹
pKd [52]: 8.76
koff [52]: 0.000532 s⁻¹
kon [52]: 304000 M⁻¹ s⁻¹
Substance: affinity-purified polyclonal anti-MIF antibody (R&D Systems AF-289-PB)
